This is an account of results in patent US11680267B2, “Co-regulatory sequences based on tetracycline and Cumate” (Shenzhen Eureka Biotechnology Co., Ltd., priority 2020, dated 2023).

Data set [1] has as its system 293T-rtTA3G-CymR cells. Put plainly: Luciferase assay, transient transfection, DOX and Cumate vs no inducer (Example 3), rtTA3G cells. It is filed as cell-based. The protocol:
(§1) 293T cells were seeded at 1.5E+06 cells per 60 mm culture dish, and cultured in DMEM (Sigam, D6429) complete medium supplemented with 10% FBS (ExCell, 11H116) at 37° C. and 5% CO 2. After 24 hours of culture, transfection was carried out according to the PEI method. During transfection, 500 μL of transfection reagent which contained 5.5 ug of total plasmid was added to each 60 mm culture dish, and the mass ratio of total plasmid to PEI MAX (Polysciences, 24765-1) was 1:4. The transfection was carried out according to the PEI method, wherein the amount of total plasmid was 5.5 μg. The transfection was performed with plasmids 19BF074:18BF019 at a molar ratio of 10:1 to obtain 293T-rtTAadv-CymR cells; and the transfection was performed with plasmids 19BF075:18BF019 at a molar ratio of 10:1 to obtain 293T-rtTA3G-CymR cells. The plasmid and PEI MAX were mixed uniformly, and then put into a culture dish after standing for 15 minutes. 3 hours after transfection, the medium was changed to a complete DMEM medium, and the transfection operation was completed. After 24 hours of transfection, the cells were digested with trypsin and all seeded in a 100 mm culture dish (Corning, 430167), and 200 μg/ml of hygromycin (Sangon Biotech A600230-0001) drug screening was performed for at least three passages. After the growth of cells under the pressure of drug screening was consistent with that of the original 293T cells, the following experiments were performed.
In Tet-On inducible expression system, the induced transcription activity and the leaky transcription activity were comprehensively affected by the TetO operator linking sequence of the TRE response element and the minimal promoter sequence, as well as different mutants of the transactivator rtTA. In addition, the transport and stability of messenger ribonucleic acid may be enhanced by linking a spliceable intron sequence downstream of the 3′ end of the response element and upstream of the 5′ end of the regulated nucleic acid fragment of interest, but the induced transcription activity and leaky transcription activity of response element of the inducible expression system may also be affected. Based on this, the optimal design scheme of complex response element was determined in this Example based on the induced expression level and the ratio of induced/leaky expression level of Luciferase gene under the combination of the following conditions: (1) Tet-On and Cumate complex response elements TREadvCuO and TRE3GCuO designed based on the TREadv and TRE3G response element sequences; (2) whether an intron was linked; (3) being regulated by the transactivator rtTAadv or rtTA3G. A total of 8 design schemes were compared in this Example: TREadv (18BF232), TREadvCuO (18BF233), TRE3G (18BF234), TRE3GCuO (18BF235), TREadv-BGI (18BF240, wherein the response element was TREadv, and a human β-globulin intron was linked between the 3′ end of the response element and the 5′ end of the Luciferase gene), TREadvCuO-BGI (18BF241, wherein the response element was TREadvCuO, and a human β-globulin intron was linked between the 3′ end of the response element and the 5′ end of the Luciferase gene), TRE3G-BGI (18BF236, wherein the response element was TRE3G, and a human β-globulin intron was linked between the 3′ end of the response element and the 5′ end of the Luciferase gene) and TRE3GCuO-BGI (18BF237, wherein the response element was TRE3GCuO, and a human β-globulin intron was linked between the 3′ end of the response element and the 5′ end of the Luciferase gene). The promoter CMV-BGI (18BF229, wherein the promoter was CMV, and a human β-globulin intron was linked between the 3′ end of the CMV promoter and the 5′ end of the Luciferase gene) was used as a positive control. […]

The subject of data set [2] is 293T-rtTA3G-CymR cells. Put plainly: Luciferase fluorescence intensity assay, transient transfection, both DOX and Cumate vs DOX alone (Example 2). The class given is cell-based.
Excerpt: The experiment described in the present Example is to study and verify the effect of the position and copy number of the CuO operator in the Tet-On and Cumate complex response element on the induced expression level and non-induced leaky expression level of the complex response element, and to optimize and confirm the optimal position and copy number of the CuO operator. In the present Example, based on the 7×TetO sequence in the TRE3G response element and the minimal promoter sequence #1 (SEQ ID NO: 25), the response elements TRE3GCuO14 (10-317 bp in SEQ ID NO: 8), TRE3GCuO30 (SEQ ID NO: 28), TRE3GCuO50 (SEQ ID NO: 23) and TRE3GCuO100 (10-403 bp in SEQ ID NO: 10) were designed by linking a CuO operator sequence at 10 bp to 100 bp downstream of the TATA box (at 14 bp, 30 bp, 50 bp and 100 bp downstream of the TATA box, respectively), and a Luciferase reporter gene sequence was linked downstream of the 3′ end of the above response elements, to construct plasmids 18BF251, 18BF252, 18BF235 and 18BF253. Further, in order to study the effect of multiple copies of CuO operators, 2, 4 and 6 copies of CuO operator sequences were respectively inserted at 50 bp downstream of the TATA box, to design the response elements TRE3GCuO2x (10-411 bp in SEQ ID NO: 11), TRE3GCuO4x (10-527 bp in SEQ ID NO: 12) and TRE3GCuO6x (10-643 bp in SEQ ID NO: 13), and then a Luciferase reporter gene sequence was linked downstream of 3′ end of the above response elements to construct plasmids 18BF254, 18BF255 and 18BF256. In 293T-rtTA3G-CymR cells stably expressing rtTA3G and CymR genes, the above plasmids were transiently transfected, and the optimal position and number of CuO operator were validated by measuring the luciferase […] value of samples added with both DOX and Cumate inducers and that of the control added with the DOX inducer only. The specific experimental methods were as follows:
as §1
The 293T-rtTA3G-CymR cells were seeded in a 96-well plate (Corning 3916) at 2.5E+04 cells per well, and the medium was 100 microliters of DMEM complete medium. […]

B1: TRE3GCuO: Tet-On (7xTetO of TRE3G) and Cumate complex response element, CuO 50 bp behind the TATA box (SEQ ID NO: 23) (nucleic acid)
DNA: TCCCTATCAGTGATAGAGAACGTATGAAGAGTTTACTCCCTATCAGTGATAGAGAACGTATGCAGACTTTACTCCCTATCAGTGATAGAGAACGTATAAGGAGTTTACTCCCTATCAGTGATAGAGAACGTATGACCAGTTTACTCCCTATCAGTGATAGAGAACGTATCTACAGTTTACTCCCTATCAGTGATAGAGAACGTATATCCAGTTTACTCCCTATCAGTGATAGAGAACGTATTAGGCGTGTACGGTGGGCGCCTATAAAAGCAGAGCTCGTTTAGTGAACCGTCAGATCGCCTGGAGCAATTCCACATACAAACAGACCAGATTGTCTGTTTGTT
modifications: TRE3GCuO50 response element sequence
With B1, in data set [1] (293T-rtTA3G-CymR cells), the “increase of induced/leaky expression ratio of TRE3GCuO over TREadvCuO” value was 37.6%. For the same molecule, the “induced expression level as % of the induced expression level of TRE3G” value in data set [1] (293T-rtTA3G-CymR cells / regulation of rtTA3G) is 61.8%. The induced expression level in data set [1] (293T-rtTA3G-CymR cells, 1 ug/ml DOX and 200 ug/ml Cumate) is 4.24E+06 RLU; in data set [2] (transient transfection, 1 ug/ml DOX and 200 ug/ml Cumate, 24 hours after transfection) it was 4.53E+06 RLU. Further, the “induced expression level as % of that of the single regulatory response element” value in data set [1] (293T-rtTA3G-CymR cells, DOX and Cumate) is 61.8%. The induced/leaky expression ratio in data set [1] (293T-rtTA3G-CymR cells, DOX and Cumate vs no inducer) amounted to 2635 times. In data set [2] (1 ug/ml DOX and 200 ug/ml Cumate), the “induced expression level as % of the induced expression level of TRE3G response element” value was 66.0%. For the same molecule, in data set [2] (DOX and Cumate vs DOX only), the “ratio of induced/leaky expression level based on Cumate inducible expression system, relative to that of TRE3G response element” value was determined as 2.81 times.
